Measurements reported in publication PMC3068626, “Cholesterol utilization in mycobacteria is controlled by two TetR-type transcriptional regulators: kstR and kstR2”.

Tests used:
[1] = target: T1, KstR2Mtb (Mycobacterium tuberculosis, UniProt P9WMB9 1-200); test: EMSA; 1 uM DNA, 6 uM protein, 10 mM MgCl2; 20 mM Tris/HCl pH 8.0, 10 mM MgCl2, 75 mM NaCl, 20 min at 37 C; […]; conditions: protein: recombinant; tags: none in EMSA (His6 tag removed with TEV protease); chain copies: 2; label: none (ethidium bromide stain); blunt
[2] = target: T1, KstR2Mtb; test: EMSA; 20 mM Tris/HCl pH 8.0, 10 mM MgCl2, 75 mM NaCl, 20 min at 37 C; […]; conditions: protein: recombinant; tags: none in EMSA (His6 tag removed with TEV protease); chain copies: 2; label: 3' DIG-11-ddUTP (end-labelled)

T1 sequence (P9WMB9 whole entry): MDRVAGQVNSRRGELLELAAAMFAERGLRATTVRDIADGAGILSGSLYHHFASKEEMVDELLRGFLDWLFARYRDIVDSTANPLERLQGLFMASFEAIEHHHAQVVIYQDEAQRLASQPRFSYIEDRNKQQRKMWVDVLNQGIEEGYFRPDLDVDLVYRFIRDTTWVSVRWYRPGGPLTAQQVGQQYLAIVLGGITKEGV

| Binder | binding result [1] | binding result [2] |
| --- | --- | --- |
| Rv3549c/Rv3550 probe (dsDNA) DNA 1: GCGTACCAAGCAAGTGCTTGCTTAGGTAGC DNA 2: GCTACCTAAGCAAGCACTTGCTTGGTACGC | binds | – |
| Rv3560c/Rv3561 probe (dsDNA) DNA 1: GCTAACCTACCAAGCACTTGCTTTGTTAGG DNA 2: CCTAACAAAGCAAGTGCTTGGTAGGTTAGC | binds | – |
| Rv3557c/Rv3558 probe (dsDNA) DNA 1: GCTGGCCGAGCAAGCGCTTGGTTGATAGTC DNA 2: GACTATCAACCAAGCGCTTGCTCGGCCAGC | binds | – |
| Rv3557c/Rv3558 probe, DIG-labelled (dsDNA) DNA 1: GCTGGCCGAGCAAGCGCTTGGTTGATAGTC DNA 2: GACTATCAACCAAGCGCTTGCTCGGCCAGC | – | binds |
